B1: T25-QseE [E. coli K-12] / T18-TM_(oppB)-QseG [E. coli K-12] (parent complex)
chain 1: MKRWPVFPRSLRQLVMLAFLLILLPLLVLAWQAWQSLNALSDQAALVNRTTLIDARRSEAMTNAALEMERSYRQYCVLDDPTLAKVYQSQRKRYSEMLDAHAGVLPDDKLYQALRQDLHNLAQLQCNNSGPDAAAAARLEAFASANTEMVQATRTVVFSRGQQLQREIAERGQYFGWQSLVLFLVSLVMVLLFTRMIIGPVKNIERMINRLGEGRSLGNSVSFSGPSELRSVGQRILWLSERLSWLESQRHQFLRHLSHELKTPLASMREGTELLADQVVGPLTPEQKEVVSILDSSSRNLQKLIEQLLDYNRKQADSAVELENVELAPLVETVVSAHSLPARAKMMHTDVDLKATACLAEPMLLMSVLDNLYSNAVHYGAESGNICLRSSLHGARVYIDVINTGTPIPQEERAMIFEPFFQGSHQRKGAVKGSGLGLSIARDCIRRMQGELYLVDESGQDVCFRIELPSSKNTK
chain 2: CVQNHNKPAIDTPAEEKIPVYQLADYLSTECSDIWALQGKSTETNPLYWLRAMDCADRLMPAQSRQQARQYDDGSWQNTFKQGILLADAKITPYERRQLVARIEALSTEIPAQVRPLYQLWRDGQALQLQLAEERQRYSKLQQSSDSELDTLRQQHHVLQQQLELTTRKLENLTDIERQLSTRKPAGNFSPDTPHESEKPAPSTHEVTPDEP

In one assay the parent is B1. In words: BACTH assay (bacterial two-hybrid, β-galactosidase read-out); reporter strain BTH101; plasmids pYG242/pYG199_TM1; parent: 1.6e+03; read off a plot.
Regarding chain 1 F19L, chain 1 L21H, chain 1 I22R, chain 1 L23P, chain 1 L24P, the response is about 70 Miller units.

The variants in the next assay derive from B1. Briefly: BACTH assay (bacterial two-hybrid, β-galactosidase read-out); reporter strain BTH101; plasmids pYG242/pYG199_1.6; parent: 1.6e+03; read off a plot.
In the case of chain 1 S58N, the response is about 250 Miller units.

The values are drawn from article PMC6075780, “Interaction of lipoprotein QseG with sensor kinase QseE in the periplasm controls the phosphorylation state of the two-component system QseE/QseF in Escherichia coli” (PLoS Genetics, 2018).
